Results taken from patent US20210292390A1, “CHIMERIC ANTIGEN RECEPTORS” (Oxford University Innovation Limited, priority 2016, published 2021).

B1: recombinant SLP-76 SH2 domain (his-tagged) (protein, UniProt Q13094 422-530, looked up)
chain: WYVSYITRPEAEAALRKINQDGTFLVRDSSKKTTTNPYVLMVLYKDKVYNIQIRYQKESQVYLLGTGLRGKEDFLSVSDIIDYFRKMPLLLIDGKNRGSRYQCTLTHAA
B2: CD6 Y629F Y662F: mutant form of CD6 with both tyrosine residues Y629 and Y662 substituted (protein, UniProt P30203 1-668, looked up, variant Y629F Y662F)
chain: MWLFFGITGLLTAALSGHPSPAPPDQLNTSSAESELWEPGERLPVRLTNGSSSCSGTVEVRLEASWEPACGALWDSRAAEAVCRALGCGGAEAASQLAPPTPELPPPPAAGNTSVAANATLAGAPALLCSGAEWRLCEVVEHACRSDGRRARVTCAENRALRLVDGGGACAGRVEMLEHGEWGSVCDDTWDLEDAHVVCRQLGCGWAVQALPGLHFTPGRGPIHRDQVNCSGAEAYLWDCPGLPGQHYCGHKEDAGAVCSEHQSWRLTGGADRCEGQVEVHFRGVWNTVCDSEWYPSEAKVLCQSLGCGTAVERPKGLPHSLSGRMYYSCNGEELTLSNCSWRFNNSNLCSQSLAARVLCSASRSLHNLSTPEVPASVQTVTIESSVTVKIENKESRELMLLIPSIVLGILLLGSLIFIAFILLRIKGKYALPVMVNHQHLPTTIPAGSNSYQPVPITIPKEVFMLPIQVQAPPPEDSDSGSDSDYEHYDFSAQPPVALTTFYNSQRHRVTDEEVQQSRFQMPPLEEGLEELHASHIPTANPGHCITDPPSLGPQYHPRSNSESSTSSGEDYCNSPKSKLPPWNPQVFSSERSSFLEQPPNLELAGTQPAFSAGPPADDSSSTSSGEWFQNFQPPPQPPSEEQFGCPGSPSPQPDSTDNDDFDDISAA
B3: chimeric receptor of SEQ ID NO.4: human CD6 extracellular and transmembrane regions, mouse CD3 zeta cytoplasmic region, plus human CD6 C terminus (protein)
chain: MWLFFGITGLLTAALSGHPSPAPPDQLNTSSAESELWEPGERLPVRLTNGSSSCSGTVEVRLEASWEPACGALWDSRAAEAVCRALGCGGAEAASQLAPPTPELPPPPAAGNTSVAANATLAGAPALLCSGAEWRLCEVVEHACRSDGRRARVTCAENRALRLVDGGGACAGRVEMLEHGEWGSVCDDTWDLEDAHVVCRQLGCGWAVQALPGLHFTPGRGPIHRDQVNCSGAEAYLWDCPGLPGQHYCGHKEDAGAVCSEHQSWRLTGGADRCEGQVEVHFRGVWNTVCDSEWYPSEAKVLCQSLGCGTAVERPKGLPHSLSGRMYYSCNGEELTLSNCSWRFNNSNLCSQSLAARVLCSASRSLHNLSTPEVPASVQTVTIESSVTVKIENKESRELMLLIPSIVLGILLLGSLIFIAFILRAKFSRSAETAANLQDPNQLYNELNLGRREEYDVLEKKRARDPEMGGKQQRRRNPQEGVYNALQKDKMAEAYSEIGTKGERRRGKGHDGLYQGLSTATKDTYDALHMQTLAPRTSSGEWYQNFQPPPQPPSEEQFGCPGSPSPQPDSTDNDDYDDISAA
B4: recombinant GADS SH2 domain (his-tagged) (protein, UniProt O75791 58-149, looked up)
chain: WFHEGLSRHQAENLLMGKEVGFFIIRASQSSPGDFSISVRHEDDVQHFKVMRDNKGNYFLWTEKFPSLNKLVDYYRTNSISRQKQIFLRDRT
B5: CD6 Y629F: mutant form of CD6 with tyrosine Y629 substituted (protein)
chain: DQLNTSSAESELWEPGERLPVRLTNGSSSCSGTVEVRLEASWEPACGALWDSRAAEAVCRALGCGGAEAASQLAPPTPELPPPPAAGNTSVAANATLAGAPALLCSGAEWRLCEVVEHACRSDGRRARVTCAENRALRLVDGGGACAGRVEMLEHGEWGSVCDDTWDLEDAHVVCRQLGCGWAVQALPGLHFTPGRGPIHRDQVNCSGAEAYLWDCPGLPGQHYCGHKEDAGAVCSEHQSWRLTGGADRCEGQVEVHFRGVWNTVCDSEWYPSEAKVLCQSLGCGTAVERPKGLPHSLSGRMYYSCNGEELTLSNCSWRFNNSNLCSQSLAARVLCSASRSLHNLSTPEVPASVQTVTIESSVTVKIENKESRELMLLIPSIVLGILLLGSLIFIAFILLRIKGKYALPVMVNHQHLPTTIPAGSNSYQPVPITIPKEVFMLPIQVQAPPPEDSDSGSDSDYEHYDFSAQPPVALTTFYNSQRHRVTDEEVQQSRFQMPPLEEGLEELHASHIPTANPGHCITDPPSLGPQYHPRSNSESSTSSGEDYCNSPKSKLPPWNPQVFSSERSSFLEQPPNLELAGTQPAFSAGPPADDSSSTSSGEWFQNFQPPPQPPSEEQFGCPGSPSPQPDSTDNDDYDDISAA
modifications: left off: large carriers; small tags and cut ends
notes: mutant form of CD6 with tyrosine Y629 substituted
B6: CD6 Y662F: mutant form of CD6 with tyrosine Y662 substituted (protein)
chain: DQLNTSSAESELWEPGERLPVRLTNGSSSCSGTVEVRLEASWEPACGALWDSRAAEAVCRALGCGGAEAASQLAPPTPELPPPPAAGNTSVAANATLAGAPALLCSGAEWRLCEVVEHACRSDGRRARVTCAENRALRLVDGGGACAGRVEMLEHGEWGSVCDDTWDLEDAHVVCRQLGCGWAVQALPGLHFTPGRGPIHRDQVNCSGAEAYLWDCPGLPGQHYCGHKEDAGAVCSEHQSWRLTGGADRCEGQVEVHFRGVWNTVCDSEWYPSEAKVLCQSLGCGTAVERPKGLPHSLSGRMYYSCNGEELTLSNCSWRFNNSNLCSQSLAARVLCSASRSLHNLSTPEVPASVQTVTIESSVTVKIENKESRELMLLIPSIVLGILLLGSLIFIAFILLRIKGKYALPVMVNHQHLPTTIPAGSNSYQPVPITIPKEVFMLPIQVQAPPPEDSDSGSDSDYEHYDFSAQPPVALTTFYNSQRHRVTDEEVQQSRFQMPPLEEGLEELHASHIPTANPGHCITDPPSLGPQYHPRSNSESSTSSGEDYCNSPKSKLPPWNPQVFSSERSSFLEQPPNLELAGTQPAFSAGPPADDSSSTSSGEWYQNFQPPPQPPSEEQFGCPGSPSPQPDSTDNDDFDDISAA
modifications: left off: large carriers; small tags and cut ends
notes: mutant form of CD6 with tyrosine Y662 substituted

Key:
[1] = biological target: biotinylated CD6 peptide Y629 pY662 (human); assay: SPR (BIAcore 3000), equilibrium binding, biotinylated peptide on streptavidin CM5 chip, 37° C.
[2] = biological target: biotinylated CD6 peptide pY629 pY662 (human); assay: as above
[3] = biological target: biotinylated CD6 peptide Y629 pY662 (human); assay: SPR (BIAcore 3000), equilibrium binding, biotinylated peptide on streptavidin CM5 chip, 15° C.
[4] = biological target: biotinylated CD6 peptide pY629 pY662 (human); assay: as above
CD4+ T cells = assay: Primary T cell activation by CD69 expression after CD3 and CD6 antibody stimulation; format: cell-based; settings: CD3 antibodies and 5 μg/ml CD6 antibodies; three donors; versus untransduced cells
Description: CD4+ T cells were stimulated with CD3 antibodies and 5 μg/ml CD6 antibodies to crosslink transduced CD6.

primary T cells = assay: Intracellular IL-2 in primary T cells after antibody stimulation; format: cell-based
SLP-76 = biological target: T1, SLP-76 (Homo sapiens, UniProt Q13094); assay: Co-immunoprecipitation with CD6 constructs in Jurkat cells, Western blot; format: binding; settings: Jurkat cells treated with Na3VO4
T1 construct: endogenous in cells; host or cells: Jurkat cells
T1 sequence (Q13094 1-533): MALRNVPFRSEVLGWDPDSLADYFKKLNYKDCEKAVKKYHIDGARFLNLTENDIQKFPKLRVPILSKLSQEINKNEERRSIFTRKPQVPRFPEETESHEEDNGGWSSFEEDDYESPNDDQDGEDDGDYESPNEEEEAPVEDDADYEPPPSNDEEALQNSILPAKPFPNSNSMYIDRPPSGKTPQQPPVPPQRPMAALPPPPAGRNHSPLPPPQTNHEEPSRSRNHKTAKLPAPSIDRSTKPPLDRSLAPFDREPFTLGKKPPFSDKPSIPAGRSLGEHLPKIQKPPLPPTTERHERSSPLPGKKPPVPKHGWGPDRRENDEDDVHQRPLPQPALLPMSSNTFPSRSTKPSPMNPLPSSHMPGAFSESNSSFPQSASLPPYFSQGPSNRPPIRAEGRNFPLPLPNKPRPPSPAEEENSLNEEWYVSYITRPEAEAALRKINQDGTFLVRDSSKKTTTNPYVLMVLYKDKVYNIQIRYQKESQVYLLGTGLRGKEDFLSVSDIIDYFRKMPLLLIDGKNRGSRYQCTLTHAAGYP
Text: (§1) In FIG. 2(A) Lysate of 8×10^5 Jurkat cells treated with the phosphatase inhibitor Na3VO4 or immunoprecipitation samples of 3×10^6 cells were loaded on gels and after electrophoretic separation they were blotted on nitrocellulose membranes. The membranes were probed with the indicated antibodies and visualised using LI-COR western blotting. FIG. 2(B) illustrates Western Blot bands of three independent CD6 co-immunoprecipitations were quantified using the software ImageJ. Each co-immunoprecipitation value is divided by the intensity of the band in the lysate to compensate for differences in cell numbers used and is normalised to the intensity of EGFP in the co-immunoprecipitation divided by the intensity of EGFP in the lysate to compensate for different expression levels of the constructs. Samples were analysed using the unpaired Student t test comparing values of mutants to the VVT. n=3, error bars show the standard error of the mean, * p<0.05, ** p<0.01, ns=not significant.

GADS = biological target: T2, GADS (Homo sapiens, UniProt O75791); assay: as above; format: binding; settings: Jurkat cells treated with Na3VO4
T2 construct: endogenous in cells; host or cells: Jurkat cells
T2 sequence (O75791 1-330): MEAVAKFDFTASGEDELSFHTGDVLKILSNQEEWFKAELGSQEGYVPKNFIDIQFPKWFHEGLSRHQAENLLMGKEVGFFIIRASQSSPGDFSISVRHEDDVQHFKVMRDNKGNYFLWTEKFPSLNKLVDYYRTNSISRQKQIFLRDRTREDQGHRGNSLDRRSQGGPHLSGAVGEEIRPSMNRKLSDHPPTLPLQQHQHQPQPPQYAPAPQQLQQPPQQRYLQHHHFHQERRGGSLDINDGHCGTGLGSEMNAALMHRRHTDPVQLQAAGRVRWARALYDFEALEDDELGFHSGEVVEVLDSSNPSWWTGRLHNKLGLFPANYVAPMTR
Text: as §1

2B4 Reay cells = assay: IL-2 secretion (ELISA) by hybridoma cells expressing chimeric receptors after CD6 crosslinking; format: cell-based, mouse
Text: The activity of the exemplary chimeric receptor was compared with that of a comparator chimeric receptor lacking the CD6-derived signalling region. Both chimeric receptor molecules contained the extracellular and transmembrane regions of human CD6 and the cytoplasmic region of mouse CD3 zeta. The exemplary chimeric receptor further comprised residues 623 to 668 from the C terminus of human CD6.
Murine T hybridoma cells were transduced to express either the exemplary or comparator chimeric receptors. Cells were assessed for their response to human CD6 monoclonal antibody immobilised on 96 well tissue culture plates. After incubation for 18 h at 37° C., the supernatants were analysed for the presence of mouse IL-2 by ELISA.
The activity of a comparator chimeric receptor (consisting of the extracellular region of human CD6 and the mouse CD3 zeta tail, effectively a first generation CAR in the cytoplasmic region) was investigated alongside the exemplary chimeric receptor illustrative of CARs or cells of the invention. […] The cells were stimulated with different concentrations of plate-bound T12.1 monoclonal antibody (mAb), a CD6 crosslinking antibody, overnight and secreted mouse IL-2 was measured by ELISA.

[5] = biological target: biotinylated CD6 peptide pY629 Y662 (human); assay: SPR (BIAcore 3000), equilibrium binding, biotinylated peptide on streptavidin CM5 chip, 37° C.
[6] = biological target: biotinylated CD6 peptide pY629 Y662 (human); assay: SPR (BIAcore 3000), equilibrium binding, biotinylated peptide on streptavidin CM5 chip, 15° C.

| Molecule | Kd [2] [nM] | Kd [4] [nM] | co-immunoprecipitation of SLP-76 (SLP-76) | co-immunoprecipitation of GADS (GADS) | further results |
| --- | --- | --- | --- | --- | --- |
| B1 | 620 to 2820 | 260 to 1820 | – | – | Kd [1]: 890 to 3090 nM; Kd [3]: 310 to 1870 nM |
| B2 | – | – | almost no SLP-76 and GADS was detected | almost no SLP-76 and GADS was detected | percentage of CD69 positive cells (CD4+ T cells): no significant difference; percentage of IL-2 positive cells (primary T cells; CD3 antibodies but not CD6 antibodies): did not show a significantly increased level of T cell activation; percentage of IL-2 positive cells (primary T cells; both CD3 antibodies and CD6 antibodies, three donors): did not show a significantly increased percentage of IL-2 positive cells |
| B3 | – | – | – | – | increase of IL-2 production as compared to a control receptor lacking the CD6-derived signalling region (2B4 Reay cells): at least 2.5 fold |
| B4 | 770 to 1580 | 140 to 2050 | – | – | Kd [5]: 600 to 880 nM; Kd [6]: 150 to 620 nM |
| B5 | – | – | strongly reduced | strongly reduced | – |
| B6 | – | – | strongly reduced | strongly reduced | – |
